Data taken from article PMC10902388 (Nature Communications, 2024).
Where a chain is given by its changes, count along the chain named. In names and notes the source's numbering stands.

B1: MBP-16E6(4C4S) F76A (natural protein)
chain: MHQKRTAMFQDPQERPRKLPQLCTELQTTIHDIILECVYCKQQLLRREVYDFAFRDLCIVYRDGNPYAVCDKCLKAYSKISEYRHYSYSLYGTTLEQQYNKPLSDLLIRCINCQKPLSPEEKQRHLDKKQRFHNIRGRWTGRCMSCSRSSRTRRETQL
notes: Mutant of m2; source: E. coli BL21(DE3), purified (MBPTrap, SEC); not shown: MBP, N-terminal, kept
B2: MBP-16E6(4C4S) Y88A (natural protein)
chain: B1 chain with A76F, Y88A
notes: as for B1
B3: MBP-16E6(4C4S) R62A (natural protein)
chain: B1 chain with R62A, A76F
notes: as for B1
B4: MBP-16E6(4C4S) Y77A (natural protein)
chain: B1 chain with A76F, Y77A
notes: as for B1
B5: MBP-16E6(4C4S) S89A (natural protein)
chain: B1 chain with A76F, S89A
notes: as for B1
B6: MBP-16E6(4C4S) R84E (natural protein)
chain: B1 chain with A76F, R84E
notes: as for B1
B7: MBP-16E6(4C4S) R84A (natural protein)
chain: B1 chain with A76F, R84A
notes: as for B1
B8: MBP-16E6(4C4S) Y86A (natural protein)
chain: B1 chain with A76F, Y86A
notes: as for B1
B9: MBP-16E6(4C4S) L57A (natural protein)
chain: B1 chain with L57A, A76F

Target: T1, full-length human E6AP (C-terminal TEV-6xHis-Avi) (human, UniProt Q05086 1-875, biotin on the Avi tag (BirA biotin-protein ligase) in the SPR experiments)
T1 sequence (Q05086 whole entry): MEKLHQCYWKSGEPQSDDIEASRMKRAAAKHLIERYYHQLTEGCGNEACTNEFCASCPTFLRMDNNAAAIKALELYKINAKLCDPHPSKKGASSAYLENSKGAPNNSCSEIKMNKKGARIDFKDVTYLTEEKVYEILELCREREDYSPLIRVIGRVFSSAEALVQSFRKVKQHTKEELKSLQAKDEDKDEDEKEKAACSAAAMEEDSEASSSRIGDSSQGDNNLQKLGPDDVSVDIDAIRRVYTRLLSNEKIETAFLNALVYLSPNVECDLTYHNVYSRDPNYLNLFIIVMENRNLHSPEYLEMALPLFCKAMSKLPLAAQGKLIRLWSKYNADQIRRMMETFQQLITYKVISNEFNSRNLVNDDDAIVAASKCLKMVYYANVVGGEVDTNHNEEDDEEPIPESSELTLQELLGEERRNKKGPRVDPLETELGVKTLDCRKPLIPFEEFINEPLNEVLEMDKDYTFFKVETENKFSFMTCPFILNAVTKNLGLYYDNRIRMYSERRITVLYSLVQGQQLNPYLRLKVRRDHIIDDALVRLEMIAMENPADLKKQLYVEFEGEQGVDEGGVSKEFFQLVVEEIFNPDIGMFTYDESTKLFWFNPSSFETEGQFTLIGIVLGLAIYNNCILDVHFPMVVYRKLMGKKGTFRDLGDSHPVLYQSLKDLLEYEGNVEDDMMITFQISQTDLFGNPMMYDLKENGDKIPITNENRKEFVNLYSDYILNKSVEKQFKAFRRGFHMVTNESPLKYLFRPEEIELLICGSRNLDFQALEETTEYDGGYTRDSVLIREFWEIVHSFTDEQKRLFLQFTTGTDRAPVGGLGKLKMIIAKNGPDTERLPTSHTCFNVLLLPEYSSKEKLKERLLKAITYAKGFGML
Test: cell-based or functional assay
Settings: not given

Row | Binder | unmodified E6AP remaining at 30 min, E6AP autoubiquitination | unmodified p53 remaining at 30 min, in vitro ubiquitination of full-length p53 | unmodified E6AP remaining after 30 min, E6AP autoubiquitination
1 | B1 | 82% | 59.5% | 
2 | B2 | 21.2% | 19.2% | 
3 | B3 |  |  | 9.3%
4 | B4 | 21.6% | 22.4% | 
5 | B5 | 33.1% | 57.3% | 
6 | B6 |  |  | 64.9%
7 | B7 |  |  | 64.9%
8 | B8 | 56.5% | 44.2% | 
9 | B9 |  |  | 45.6%

Target: T1, full-length human E6AP (C-terminal …)
Test: SPR
Settings: both partners purified

Row | Binder | Kd
10 | B1 | 8.5 nM
11 | B2 | 5.4 nM
12 | B3 | 2.2 nM
13 | B4 | 0.742 nM
14 | B5 | 1.71 nM
15 | B6 | 195 nM
16 | B7 | 34.4 nM
17 | B8 | 6.3 nM
